What is called Kd is the equilibrium constant for the complex coming apart.

Three molecules from patent publication US20110190483, “Stimulus-Responsive Apta Chelamers” (The Administrators of the Tulane Educational Fund, published 2011) can be followed below.

Holding throughout (conditions): tags: Sigma Aldrich, from bovine pancreas; label: fluorescein on 5'-terminal dT; intramolecular antiparallel G4
In data set [1] the target is T1, trypsin (Bos taurus, UniProt P00760 P00760:24-246). The experiment in a line: FP; 25 mM KCl, 200 mM NaCl, 25 mM Hepes pH 7.4, 25 C; iodophenylthiourea arm only. As to the method:
(§1) The preformed quadruplexes were then incubated with increasing concentrations of trypsin at 25° C. (25 mM KCl, 200 mM NaCl, 25 mM Hepes, pH 7.4) for 30 min. Preliminary fluorescence anisotropy studies were conducted to ascertain that equilibrium was reached after 30 min and that there was no significant quenching of the fluorescein emission. The anisotropy associated with the fluorescein emission was followed at 525 nm (excitation at 495 nm). The resultant binding isotherms (FIG. 14) were fitted using non-linear regression to a 1:1 binding stoichiometry. […] This dissociation constant is attributed to non-specific interactions between bovine trypsin and ODN 4, since trypsin (pI=10.5) is positively charged at pH=7.4 and thus can potentially associate with the negatively charged DNA backbone. Support for such non-specific interactions comes from incubation of trypsin with ODN 4 where the concentration of salts were decreased to only 5 mM KCl, 25 mM Hepes, pH 7.4 (see, e.g., FIG. 23).
(§2) Immediately prior to each fluorescence polarization experiment, fresh stock solutions of trypsin were made in Hepes buffer (20 mM KCl, 200 mM NaCl, 25 mM Hepes, pH 7.4). Concentration of the trypsin in the stock solutions were determined using ultra-violet absorbance at 280 nm (ε=37669 M⁻¹cm⁻¹).

Data set [2] deals with T1, trypsin. The experiment in a line: FP; preformed quadruplex, 25 mM KCl (20 mM elsewhere), 200 mM NaCl, 25 mM Hepes pH 7.4, 25 C; binding through small-molecule arms. The protocol: as §1, §2
The target in data set [3] is T1, trypsin. The experiment in a line: FP; low salt: 5 mM KCl, 25 mM Hepes pH 7.4; +/-0.3e-6. The protocol:
The results of FIG. 23 show fluorescence anisotropy titrations of AC 1 and negative control ODN 4 (2 nM), first exposed to quadruplex forming conditions followed by incubation with increasing concentrations of trypsin. These experiments were conducted under low-salt conditions (5 mM KCl, 25 mM Hepes, pH 7.4. The raw data is depicted by circles for AC 1 and diamonds (♦) for ODN 4. The lines represent non-linear fits to equation 2 (R²=0.99 for AC 1 and 0.98 for ODN 4).
These findings are consistent with the fact that bovine trypsin is positively charged at pH=7.4 (pI of bovine trypsin is=10.5) and thus can potentially associate with the negatively charged ODN backbone, through non-specific interactions, under low-salt conditions.

Data set [4] has as its target T1, trypsin. The data set is described as follows: FP; 25 mM KCl, 200 mM NaCl, 25 mM Hepes pH 7.4, 25 C; benzamidine arm only. The protocol: as §1, §2

T1 sequence (P00760 24-246, one chain of several): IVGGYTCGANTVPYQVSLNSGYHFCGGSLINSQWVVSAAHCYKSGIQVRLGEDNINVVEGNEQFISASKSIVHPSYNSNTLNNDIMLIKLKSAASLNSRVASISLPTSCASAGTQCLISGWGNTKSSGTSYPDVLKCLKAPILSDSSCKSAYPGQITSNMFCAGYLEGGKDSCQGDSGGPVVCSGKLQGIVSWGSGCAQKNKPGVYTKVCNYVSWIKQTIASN

Turning to TTGGTTGGTGTGGTTGGT (structured_DNA, 3'-iodophenylthiourea arm via C6 spacer, no 5' arm) [ODN 3 (Formula 5)], the equilibrium dissociation constant (Kd) in data set [1] came out at 90 µM.
On to TTGGTTGGTGTGGTTGGT (structured_DNA, 5'-benzamidine arm via C10 spacer, 3'-iodophenylthiourea arm via C6 spacer) [AC 1 (ODN 1, Formula 3)], for which the dissociation constant (Kd) in data set [2] came to 0.81 µM; in data set [3], 2.8 µM.
Turning to TTGGTTGGTGTGGTTGGT (structured_DNA, 5'-benzamidine arm via C10 spacer, no 3' arm) [ODN 2 (Formula 4)], in data set [4], binding was characterised by a dissociation constant (Kd) of 29 µM.
